Among the targets are FZD7 CRD (Homo sapiens); Human βKlotho (human, UniProt Q86Z14 1-996); L-39F7; L-αGFP.
What all share (experiment): BLI
Background: BLI is a label-free optical method that tracks binding on a fibre tip over time.

B1: F-FGF21FL (other)
chain: HPIPDSSPLLQFGGQVRQRYLYTDDAQQTEAHLEIREDGTVGGAADQSPESLLQLKALKPGVIQILGVKTSRFLCQRPDGALYGSLHFDPEACSFRERLLEDGYNVYQSEAHGLPLHLPGNKSPHRDPAPRGPARFLPLPGLPPALPEPPGILAPQPPDVGSSDPLSMVGGSQGRSPSYES
With B1, the results for the Kd with FZD7 CRD and with Human βKlotho were 92.3 nM and 10.1 nM, respectively.

B2: LRP6E3E4 (protein)
chain: EAFLLFSRRADIRRISLETNNNNVAIPLTGVKEASALDFDVTDNRIYWTDISLKTISRAFMNGSALEHVVEFGLDYPEGMAVDWLGKNLYWADTGTNRIEVSKLDGQHRQVLVWKDLDSPRALALDPAEGFMYWTEWGGKPKIDRAAMDGSERTTLVPNVGRANGLTIDYAKRRLYWTDLDTNLIESSNMLGLNREVIADDLPHPFGLTQYQDYIYWTDWSRRSIERANKTSGQNRTIIQGHLDYVMDILVFHSSRQSGWNECASSNGHCSHLCLAVPVGGFVCGCPAHYSLNADNRTCSAPTTFLLFSQKSAINRMVIDEQQSPDIILPIHSLRNVRAIDYDPLDKQLYWIDSRQNMIRKAQEDGSQGFTVVVSSVPSQNLEIQPYDLSIDIYSRYIYWTCEATNVINVTRLDGRSVGVVLKGEQDRPRAVVVNPEKGYMYFTNLQERSPKIERAALDGTEREVLFFSGLSKPIALALDSRLGKLFWADSDLRRIESSDLSGANRIVLEDSNILQPVGLTVFENWLYWIDKQQQMIEKIDMTGREGRTKVQARIAQLSDIHAVKELNLQEYRQHPCAQDNGGCSHICLVKGDGTTRCSCPMHLVLLQDELSCGEP
With B2, the Kd – broadly, the concentration at which binding is half-saturated – with L-39F7 is 6.4 nM; with L-αGFP it was 9.7 nM.

B3: F-FGF21ΔN (other)
chain: QRYLYTDDAQQTEAHLEIREDGTVGGAADQSPESLLQLKALKPGVIQILGVKTSRFLCQRPDGALYGSLHFDPEACSFRERLLEDGYNVYQSEAHGLPLHLPGNKSPHRDPAPRGPARFLPLPGLPPALPEPPGILAPQPPDVGSSDPLSMVGGSQGRSPSYES
For B3, the results for the dissociation constant (Kd) in the assay with FZD7 CRD and in the assay with Human βKlotho were 82.5 nM and 11.8 nM, respectively.
